Assay results taken from patent US20020147306A1, “Peptides that modulate the interaction of B class ephrins and PDZ domains” (priority 1998, published 2002).

Tests used:
[1] = target: T1, GST-FAP-1 PDZ5 binding to ephrin B1 (Homo sapiens, UniProt Q12923); assay: Peptide competition of GST-FAP-1 PDZ5 binding to ephrin B1 (GST mixing, immunoblot); conditions: peptide 100 μM, lysates of ephrin B1-transfected Cos-1 cells
T1 construct: made in house; ephrin B1: transiently transfected Cos-1 cells (lysate)
T1 sequence (Q12923 1788-1868 limits assumed): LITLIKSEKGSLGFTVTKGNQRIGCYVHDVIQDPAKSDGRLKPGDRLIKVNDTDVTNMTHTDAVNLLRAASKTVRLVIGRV
Experimental: FIGS. 4A and 4B. FAP-1 PDZ5 and syntenin binding to ephrin B1 can be blocked by addition of peptides corresponding to the C-terminal sequence of B ephrins. Peptides of the indicated sequence were included at a concentration of 100 μM in incubations of GST fusion proteins with lysates of Cos-1 cells transfected with ephrin B1. Associated proteins were separated on a 10% polyacrylamide/SDS gel and analyzed by immunoblotting with antibodies against ephrin B1. FIG. 4A, Competition of FAP-1 PDZ5 binding to ephrin B1 using the indicated peptides. A peptide of sequence DHQpYpYND was added at a concentration of 100 μM as a negative control. Immunoprecipitation of ephrin B1 was included as a positive control. FIG. 4B, Peptide competition of the binding of full-length syntenin to ephrin B1.
Cos-1 cells were maintained in DMEM supplemented with 10% fetal bovine serum (FBS). Transient transfections were performed using Lipofectin reagent and Opti-MEM medium (Life Technologies Inc.) as outlined by the manufacturer. To reduce phosphorylation of ephrin B1 by binding to endogenously expressed EphB receptors or by stimulation with serum growth factors, transfected cells were transferred from 10 cm to 15 cm plates 24 h after transfection and serum starved in DMEM 0.5% FBS 12 h prior to cell lysis. […]

GRIP PDZ6 = target: T2, GRIP PDZ6 (Mus musculus, UniProt Q925T6); assay: Fluorescence polarization binding of fluorescent peptide to GST fusion of GRIP PDZ6
T2 construct: separate GST fusions of GRIP PDZ6 and GRIP PDZ7; made in house
T2 sequence (Q925T6 672-754 limits assumed): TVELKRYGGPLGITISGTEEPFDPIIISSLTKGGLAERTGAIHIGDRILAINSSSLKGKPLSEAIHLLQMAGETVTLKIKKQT
Experimental: (§1) All fluorescence polarization measurements were conducted at 22° C.

GRIP PDZ7 = target: T3, GRIP PDZ7 (Mus musculus, UniProt Q925T6); assay: Fluorescence polarization binding of fluorescent peptide to GST fusion of GRIP PDZ7
T3 construct: separate GST fusions of GRIP PDZ6 and GRIP PDZ7; made in house
T3 sequence (Q925T6 1003-1085 limits assumed): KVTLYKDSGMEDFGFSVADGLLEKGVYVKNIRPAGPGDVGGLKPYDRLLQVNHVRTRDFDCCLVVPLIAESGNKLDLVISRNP
Experimental: as §1

Row | blocking of GST-FAP-1 PDZ5 binding to ephrin B1 [1] | interaction with GST fusion of GRIP PDZ6 (GRIP PDZ6) | interaction with GST fusion of GRIP PDZ7 (GRIP PDZ7) | Substance
1 | did not decrease binding |  |  | DHQpYpYND
2 |  | not detected | not detected | GNIYYKV [fluorescent B ephrin C-terminal peptide]
